Columns and labels:
Mouse BCMA-Fc = molecular target: T1, Mouse BCMA-Fc (mouse, UniProt O88472 1-49, limits assumed, not fully specified); assay: method not stated; mean of three biological replicates
T1 construct: not shown: Fc part
T1 chain (looked up): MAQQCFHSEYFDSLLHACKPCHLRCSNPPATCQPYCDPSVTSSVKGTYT

Cyno BCMA-Fc = molecular target: T2, Cyno BCMA-Fc (cynomolgus, UniProt A0A2K5UD97 1-53); assay: as above
T2 construct: not shown: Fc part

Human CD3-biotin = molecular target: T3, Human CD3-biotin (human); assay: as above
T3 chain: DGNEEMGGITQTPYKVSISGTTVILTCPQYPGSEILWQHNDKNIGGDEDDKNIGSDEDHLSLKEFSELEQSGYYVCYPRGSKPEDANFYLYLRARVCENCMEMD

soluble BCMA = molecular target: T4, soluble BCMA (UniProt Q02223 1-54); assay: cell-based or functional assay
T4 sequence (looked up): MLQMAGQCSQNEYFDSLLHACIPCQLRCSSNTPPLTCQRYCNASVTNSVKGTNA

[1] = molecular target: T5, BCMA on KMS11 myeloma cells (UniProt Q02223 1-184); assay: cell-based or functional assay
T5 sequence (looked up): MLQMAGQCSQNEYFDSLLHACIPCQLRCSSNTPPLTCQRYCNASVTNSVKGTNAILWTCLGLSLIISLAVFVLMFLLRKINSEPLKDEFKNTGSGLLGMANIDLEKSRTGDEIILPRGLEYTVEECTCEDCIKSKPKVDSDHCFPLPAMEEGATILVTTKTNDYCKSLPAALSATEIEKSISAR

T2 sequence (A0A2K5UD97 entry or part of it): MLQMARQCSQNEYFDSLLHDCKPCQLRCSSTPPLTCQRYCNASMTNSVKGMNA

B1: BSBM3 (bispecific antibody)
heavy: not shown
light: QSALTQPASVSGSPGQSITISCTGTSSDVGGYNYVSWYQQHPGKAPKLMIYDVSNRLRGVSNRFSGSKSGNTASLTISGLQAEDEADYYCSSYTSSSALYVFGSGTKVTVLGQPKAAPSVTLFPPSSEELQANKATLVCLISDFYPGAVTVAWKADSSPVKAGVETTTPSKQSNNKYAASSYLSLTPEQWKSHRSYSCQVTHEGSTVEKTVAPTECS
chain: not shown
notes: Heterodimeric IgG1 format: anti-BCMA Fab half antibody and anti-CD3 scFv-Fc half antibody; also called BSMB3
Kd (Mouse BCMA-Fc): 1.15 nM | Kd (Cyno BCMA-Fc): 1.29 nM | Kd (Human CD3-biotin): 8.78 nM | EC30 in RTCC assay, fold increase with 30 ng/mL soluble BCMA (soluble BCMA): 6 fold | EC30 in RTCC assay, fold increase with 100 ng/mL soluble BCMA (soluble BCMA): 15 fold | EC30 in RTCC assay, fold increase with 300 ng/mL soluble BCMA (soluble BCMA): 41 fold | EC50 in RTCC assay (without added recombinant soluble BCMA) [1]: ~0.07 µg/mL | EC50 in RTCC assay, BSBM3 with AL-102 (gamma secretase inhibitor that raises surface BCMA) [1]: 0.02 nM | EC50 of KMS11-Luc cell death in RTCC assay, BSBM3 alone [1]: 1 nM

Reference: patent publication US20220332821A1 (Novartis, published 2022)
